Laboratory results taken from patent publication EP4671273A1 (Anaveon AG, dated 2025).

Columns and labels:
[1] = target: T1, recombinant IL-21Ra-Fc (AcroBiosystems) (human, UniProt Q9HBE5 20-232); assay: SPR, not shown
T1 construct: bought; also called rIL-21Rα; rIL-21Ra-Fc; not shown: Fc of the bought reagent, not described

[2] = target: recombinant human IL-21 (rhIL-21) (human, UniProt Q9HBE4 30-162, limits assumed); assay: cell-based or functional assay
Sequence of recombinant human IL-21 (rhIL-21) (Q9HBE4 30-162 limits assumed): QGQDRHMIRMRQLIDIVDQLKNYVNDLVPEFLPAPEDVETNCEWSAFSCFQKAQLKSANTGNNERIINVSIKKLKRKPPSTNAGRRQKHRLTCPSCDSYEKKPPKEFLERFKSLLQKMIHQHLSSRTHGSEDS

T1 sequence (Q9HBE5 20-232): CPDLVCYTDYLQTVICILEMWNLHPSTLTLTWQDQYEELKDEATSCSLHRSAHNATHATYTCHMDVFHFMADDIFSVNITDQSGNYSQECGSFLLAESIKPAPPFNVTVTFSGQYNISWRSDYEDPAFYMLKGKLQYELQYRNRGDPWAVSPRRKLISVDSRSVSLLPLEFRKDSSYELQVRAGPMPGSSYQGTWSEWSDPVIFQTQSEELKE

binding result [1]: binds
% pSTAT3+ Jurkat cells, 0.1 nM rhIL-21 + 0 nM antibody [2]: 82.7%
% pSTAT3+ Jurkat cells, 0.1 nM rhIL-21 + 0.1012 nM antibody [2]: 59.4%
% pSTAT3+ Jurkat cells, 0.1 nM rhIL-21 + 0.1602 nM antibody [2]: 6.07%
% pSTAT3+ Jurkat cells, 0.1 nM rhIL-21 + 0.2536 nM antibody [2]: 4.93%
% pSTAT3+ Jurkat cells, 0.1 nM rhIL-21 + 0.4015 nM antibody [2]: 4.39%
% pSTAT3+ Jurkat cells, 0.1 nM rhIL-21 + 0.6355 nM antibody [2]: 5.32%
% pSTAT3+ Jurkat cells, 0.1 nM rhIL-21 + 1.006 nM antibody [2]: 5.9%
% pSTAT3+ Jurkat cells, 0.1 nM rhIL-21 + 1.5925 nM antibody [2]: 4.78%
% pSTAT3+ Jurkat cells, 0.1 nM rhIL-21 + 2.5209 nM antibody [2]: 5.16%
% pSTAT3+ Jurkat cells, 0.1 nM rhIL-21 + 3.9906 nM antibody [2]: 4.64%
% pSTAT3+ Jurkat cells, 0.1 nM rhIL-21 + 6.3171 nM antibody [2]: 3.99%
% pSTAT3+ Jurkat cells, 0.1 nM rhIL-21 + 10 nM antibody [2]: 3.83%
B1: FYP014 (antibody, human IgG1, V domains shown)
VH: EVQLVESGGGLVKPGGSLRLSCAASGFIFSSYSMNWVRQAPGKGLEWVSSITSGSYYIHYADSVKGRFTISRDNAKNSLYLQMNSLRAEDTAVYYCVRERGWGYYGMDVWGQGTTVTVSS
VL: AIQLTQSPSSLSASVGDRVTITCRASQDIDSALAWYQQKPGKAPKILIHDASSLESGVPSRFSGSGSGTDFTLTISSLQPEDFATYYCQQFNSYPYTFGQGTKLEIK
notes: human IgG1; also called EP3103813A1 clone 366.328.10.63
